Measured values reported in the domain aggregation screens of Martell et al. (2025).

Experiment: soluble fraction after stress (log2 fold change); higher = more stays soluble; pooled small domains, quantitative proteomics
Conditions: stress: pH 4
Summary of the method: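 Aggregation propensity is read out as the fold change in how much of each domain remains soluble after acid stress. The custom small-domain libraries were pooled, held at pH 4 and analysed with high-throughput quantitative proteomics. On the log2 scale used, higher values mean more of the domain stayed soluble.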

| Sequence | soluble fraction (log2) |
| --- | --- |
| HMNANTILNSQRILTQLGFNPGPIDGAFGAKTKGALNAFYTSIGKSYDGLLDSNELVELQKALDVSGLKN | -0.198 |
| HMNDADAHASVDAALKHLEALAETTPEVRAALELVRRGPDGRVTVDSFARVAEALREISIAVGAS | -0.632 |
| HMNDELMEQIDEWHKAEKHQEIIDALEQIPEAERDFETTGFLARAYNNIEEYAKAADLLESVRE | -1.51 |
| HMNDGEIAAPVSGTLQSFKVEDGQTVSEGDLVAVMEAMKMETQILATKGGTIRLLVKEGDYLQAGHALMTI | -1.07 |
| HMNDGTIRVGTNVTIKPSAKRWATGQNIYYGVKGKTYKVIQMNGNRLLLDKVISWINKGDVYVPGS | 0.192 |
| HMNDIDRFIEALIEQDTLPGTNSRINEDVISEMKMMTSVEDIKAYAIATVGLTGGQVNNALINSGL | -1.61 |
| HMNDIVKIYTTHRIINIEGLAKNEPIMLYTINGTLIDKSVSSNGSAQLHVKGIGVYLVKWANNIVKVIVPN | 0.199 |
| HMNDLDSLWDIWENLNERGIGDKSEEGQELRDAIREFIDTNELNVRVTRNKTNEDLLTDIEDALEVAKNS | -2.07 |
| HMNDLIFSTLAEYDRDTITEIISVVDNTRGIGYEVELVRKDLIAMAAQAEARRDYLPSVIGDVEVFKRNLL | -0.0414 |
| HMNDNQNKQMLWELLKDNRAFDNFDNKDYKTIIHLFNETVNTIDHRTPNLDLIKKNKIFIQDIMQKLSNL | -1.04 |
| HMNDSGIIGVVINDHEKYEGHVLEDGFISSSLSALSREIDVAGYFMMVKTVVYEGFFQELKGIGNV | 0.079 |
| HMNDTNEEAVLSIILKNPQATQGAIAKEVGASLSTVKRIMRNLQKSGKLRREGTNRNGSWVVTGQK | 0.136 |
| HMNDTPPELRAALDLLGLKWPLASVELRARYKDLAKQHHPDATGGDKQAEERLKDINRAYSLLKHRLAKQ | 0.144 |
| HMNDTVGMNIRRLRKERGMTQGDLADKAGIQRETISKYESNKLTPPSYNLESIEKALKVPAGTLAQ | 0.22 |
| HMNDYIGVDRAKEIALNHARMNESDVQFAKAKLENDDGVVEYEIEFYFGRTEYDYTIDAVSGNIIEYDVEY | -0.0067 |
| HMNEDDQLLKVLLAEPLRLEELYNLDLKPQGPYNLQTWIMVHLTELERDGLIARFPDGRYGPAR | -1.57 |
| HMNEFAYLIKISPEHNNNRYYRMVAEGDNFRIEMGRIGASPVQMKRPMYLWNETYQKKLQEGYTDRTSYTS | -0.2 |
| HMNEIDLEAAKRIALQNAGVESADAAFTKAQLDYDDGVAEYEIEFVAGSTKYEYEISAANGTVLKSSKESV | 0.243 |
| HMNEIEIHINKLFGKISDSKRKQELMQEITQNLNEKVSDLVSQGQTREQAVKKAIEDFGDIDDLKDELDN | -0.0968 |
| HMNEIYHQIKVDNVSDDDISLFQYSGIEFDHADYRRGEYIEFAISNRDLSILNNLGYEYQVVHH | -1.07 |
| HMNEKAALIFNEWSDFVSKDDEANAQIKFDELITLYKKTGYTKIALLEVATKQASNGDIEGALAKYSLLID | -0.919 |
| HMNEKTGTLTVYSSPGWAKVYIDGEYKGITPVMANLTYGDHYVKLTLDGYDSIGNHIDVNSPDQSYTGKF | 0.0783 |
| HMNELIGVEQLQDLREAIADHGFAEQRVLNWLYQATKGQVSRLEQLPLPMLTTLHKKLGQWADAEAAASSA | -0.499 |
| HMNELVEATITTQTGRLDKVLTTIFPQYSRSQIQQLLEQGNILVNETLQKGKYKVKAGDKISLTEPAIKE | ≥ 0.43 |
| HMNEMSDTITRLLDAAETGIRLRGYHAVSFRDLAEELGIKSSSVHYYFRQKEDLGLAVVERY | -0.185 |

| Sequence | soluble fraction (log2) |
| --- | --- |
| HMNENDPRVIKTRRLLLDSFVVLVRKKDFTSISVKDITDSAQVNRATFYAHFQDKYDILEYMVID | -0.198 |
| HMNENNFIVAMRERLAQFIETSGTSQSRIAKELGVSKSTVSLFLGGTYGGNNQELARNLEQLLSMGAARR | 0.212 |
| HMNEPMITEVKRINYGSIKEIAKNLDVFKGKNGTVIIDERTNTLILTDLSENIEKMLWSIEITD | -0.855 |
| HMNERTKIPLRKIEIGQAVYVDTLEKVGTVIDIQGKQFKVDLAGLPITVAARNLFYPLPQEAKP | -0.0254 |
| HMNESADMPDVVNMSLEAAKSQLEGMGLKVKVENVEDDSVEENHVIKTSPVSGEKVKLGTTVTLTVSKGR | -0.279 |
| HMNESEALIARIENLPPIEDLTEKHAEEVKALMTVYSKLKMSDRILVTNYGVLKKDFDALVKKGFLTNED | 0.0976 |
| HMNETHANKVYNFLKKKKKPLSAYEILKELASEGISAPTTIYRALNKLVSNGLIHKIESLNAWTV | 0.185 |
| HMNETLKQIRINALQYSEKDMATKLGLPLSEYKEIENDKPLNFTLLIRLSQAVGKTIDDLLNAQ | -0.128 |
| HMNEVETWSVQADGATGRIDKWLAEQNEWSRSQVQEWLKAGRVEVDGRVVKPNYKLSGTESIAVHIPEAV | -0.0787 |
| HMNEWVSVEERLPTDERPVLAFIGYADTMNGFITTSYYFRFDPDPHWLGEGLIPVGLKTLFWMPLPAP | -0.0414 |
| HMNEYSLVPDIYGMTYDDALSSLRNVGLDGRLALASTNEDLANADTRVVWQSKEAGSIIDKGSNVMFVID | -1.27 |
| HMNFAERIKELRKEKGITQIDLAEAVGLSKGTVAMWEVDKREANFDTLNKLSDYFQVSIDYLLGRSNDRS | -0.206 |
| HMNFDVETGLPLDSRLVVSGLIQRDGINSLKRYEGMIVYVESEAKNYQLVGGISNTDWAELS | -0.426 |
| HMNFGEVLQTKRKSMGLTQEDLADKLFVSSETISNWETNKTTPDIDNVIRISQLFDISLNNLLL | -0.89 |
| HMNFIPGEKINLKIVQEGKEKNQGVGYLSDGTMVIVENGSQKLGQDVEVVVIKNIQSSAGKIVFGDISK | 0.227 |
| HMNFSRQREIIYEQVRNFPVHPTAEEVYRALKNDNPNLSLGTVYRNLNQLSEAGMLLKIPIADGSDRFDGR | -0.56 |
| HMNFTETENRIYEEILKNVKQHKKKTVVQIAEKVDVAPSYVIKVAKKLGYSGLNEMWYSLSGIY | -0.0318 |
| HMNFTMERLYTKELTSEDIDEIKKELNSMGYTEGVEFNIIKGDKTSFIMAERQLKAKMLSHLSDLGLPRGA | 0.0335 |
| HMNGAAAEQARKQLMTALKASEFIAQDKLDEWLDALALPQEKRSAIIDAVDELDYEEAISELEN | -0.2 |
| HMNGDWISARQEYYIRGLWDLASRAKDEASLQAMLQRIAGVTQIEWISKEKATKVILALRDIAKK | -0.154 |
| HMNGELSQRQWQILRLIAQGLSNEQMARQLFVAPSTIKTHINHLYAKLGVRTRAEAQAIARQKLMA | -0.0448 |
| HMNGIFEYSDAKKVPSLVEIENAYRRARVNGAEKFAVIINGEYFGYNPQKRGIYKLNDGEYQIL | 0.115 |
| HMNGKPDMTPIPAGSRNNDLHAWAYGRLLNHPDNAEAIRRDLFERGQTSGLKESELETIWQSIRRQLGGD | 0.126 |
| HMNGKTIEVPDITEKSIAEAQLILNQKKLRYNVVDSTRFDPAYLPFSVLTQEPEAGDEVKKNRTIYITLNP | -0.0716 |
| HMNGLDSVLRNWARQTLASGGENLLGDLTDHVTRLIISEALIMTGGNRTRAAELLGLSRPTLLAKMDKLNL | -0.789 |
